Assay results: the supplement of paper PMC10567573

B1: C22orf15 (parent)
chain: ITQSWQVSVRVQPRGRAHLLPNPY
B2: ZNF449 (parent)
chain: HTGERPYECTVCKKRFTRRSHLIG

Variants of: B1
Test: protein stability index of a GFP-peptide fusion (GPS, HEK-293T) (PSI 1-6); higher = more stable
Conditions: c terminus: a fixed tail appended
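Note: lentivirally expressed fusions sorted by FACS into six bins by GFP to DsRed ratio, PSI derived from sequencing read proportions per bin multiplied by bin number.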

Protein stability index of substitutions, site by site:
V9: L 2.7, M 1.34, H 2.88, K 1.91, I 2.64, F 1.74, E 2.26, D 2.02, A 2.19
S4: R 2.99, Y 2.42, G 2.27, A 3.33, N 1.73, T 1.48, Q 1.87, F 3.65, P 1.65, H 2.83, K 1.42
V7: P 2.7, Y 1.86, M 2.46, K 1.81, H 2.68, T 2.04, D 2.42, A 2.77, E 2.29, L 1.88, Q 2.51, S 2.12, C 1.6, G 2.34, F 2.22, R 2.39, W 1.5, N 2.38
W5: C 2.25, P 2.56, K 3.36, A 1.86, V 3.07, Q 1.81, D 2.32, F 2.29, Y 1.84, N 2.86, M 1.61, R 2.21, S 2.69, T 1.48, L 3.62, I 4.28, H 2.57, E 2.97
Q3: T 1.51, D 1.47, K 1.95, H 2.02, A 3.08, S 3.25, F 2.14, E 1.07, R 1.1, N 1.85, Y 4.26, W 1.68
T2: F 2.43, K 1.87, G 1.77, A 1.43, M 3.15, L 2.27, E 1.69, D 2.46, Y 3.42, S 1.77, H 1.45, W 2.62, P 2.43, Q 2.53, C 3.3
Q6: N 1.73, P 3.07, T 1.77, E 1.92, F 4.73, Y 1.96, I 2.74, A 1.09, D 2.15, S 1.9
I1: S 1.78, R 1.68, K 2.18, H 2.61, D 2.12, Y 3.3, P 1.64, Q 1.31, N 2.24, L 1.5, A 2.73, C 4.55, T 1.9, V 1.41, G 1.92, F 2.74, M 1.26
S8: A 1.27, R 2.73, C 1.12, D 2.65, N 1.46, M 2.55, H 2.28, Y 1.8, P 1.71, F 2.21, G 2.39, E 1.54, T 3.34

Variants of: B2
Test: as above
Conditions: c terminus: a fixed tail appended

Protein stability index of substitutions, site by site:
H1: M 2.96, K 2.6, D 2.19, C 2.48, L 1.79, V 2.39, G 1.83, F 1.78, S 1.85, P 2.59
L22: V 3.02, E 3.43, Q 2.58, H 3, I 2.23, C 3.46, W 2.66, K 2.35, A 3.16
T2: V 1.97, W 2.13, K 2.4, N 2.13, H 3.18, D 2.23, P 1.8, A 2.85, F 2.08, R 2.12, S 1.83
R15: D 2.09, F 1.72, T 2.52, E 2.04, W 2.56, N 2.58, K 2.52, A 1.99, I 2.1
K14: D 2.29, E 1.73, Q 1.75, C 2.01, H 2.58, L 1.66, P 1.97, W 1.49, A 1.89, V 2.09
K13: R 2.31, P 2.86, C 1.06, A 1.63, Q 2, W 2.62
T10: N 2.17, C 2.54, W 1.3, Q 1.36, M 2.51
Y7: C 3.74, D 2.6, Q 2.21, A 2.8, F 1.44, W 1.4, K 2.44, P 2.07, M 2.11
S20: P 2.31, Q 1.88, F 1.9, A 1.44, I 1.57, T 2.18, N 2.69, G 2.47, E 2.53, H 2.37
G3: V 1.82, Q 3.59, A 2.63, F 2.06, S 2.33, E 2.26, N 1.85, W 2.43, I 2.39, D 2.44, C 3.04, R 1.73, Y 1.9
E4: C 2.26, N 2.15, W 1.8, T 2.76, V 2.02, R 1.96, M 2.24, F 1.9, Q 2.66, L 1.5, K 1.7, S 2.53
F16: L 1.67, A 2.1, C 2.42, N 2.72, H 3.32, Y 1.99, S 2.51, G 2.82, P 3.2, D 3
H21: S 2.93, F 1.83, N 2.39, A 2.22
P6: N 2.3, V 3.36, E 2.34, Y 2.22, K 2.02, M 2.74, Q 3.29, H 2.64
C9: L 2.83, H 3.03, R 3.99, M 2.8, S 3.69, I 3.17, Y 3.67, E 3.31, A 3.85
R5: E 2.33, F 1.76, L 2.09, I 2.19, W 2, N 1.64, H 2.67, V 2.07, K 1.99
C12: P 3.06, S 3.39, W 1.86, R 3.79, D 3.99, I 3.31, F 3.01, Y 3.2
G24: N 2.39, Y 2.9, H 1.89, E 1.92, S 2.61, V 1.6, D 2.81
R18: K 1.97, S 2.5, I 2.7, M 1.5, P 1.91, W 2.33, F 2.18, C 2.97, L 1.74
R19: T 1.84, A 1.71, K 2.54, H 1.96, S 2.76
V11: D 2.44, Q 3.12, H 2.99, G 2.99, S 2.58, C 2.29, E 3.06, M 1.91, Y 2.64, R 2.39
I23: G 1.81, P 2.23, S 2.55, L 2, C 3.61, H 3.06, Y 2.42, K 4.19, F 2.42, W 2.62
T17: L 2.19, C 4.7, N 2.21, F 1.51, I 2.3, G 1.82, H 3.25, E 2.63, A 2.19
E8: Y 2.15, A 1.77, L 2.77, F 1.84, N 1.79, H 2.12, R 2.22, T 2, P 1.94
